Assay [1] has as its target T1, human IGF2^1-67 (mature insulin-like growth factor 2) (human, UniProt P01344 25-91, biotinylated (site not stated) where immobilised on the chip (Tables 1-4)).
T1 construct: mature; also called mature IGF2; biotinylated IGF2
As to the kind of experiment: SPR steady state, biotin-IGF2 on chip, pH 7.4. The source says:
(§1) Surface plasmon resonance (SPR) binding analysis of recombinant M6P/IGF2R domain 11 mutants interaction with IGF2. Kon indicates association (on) rate; koff, dissociation (off) rate; RU, response units. Binding to IGF2 assessed with BIAcore T200 using purified biotinylated IGF2 and IGF1 on a streptavidin biosensor chip. Recombinant proteins were expressed either in E. coli and/or P. pastoris. All the mutants in the FG and CD loops are on the domain 11^AB5 background for the AB loop unless otherwise stated. All experiments were carried out at 25° C. in HBS-EP buffer (pH 7.4), were repeated 2-5 times on two independent BIAcore chips. nd=not determined. Data for KD expressed as mean of each experiment, and means of kon and koff are shown.
(§2) Final kinetic analysis of mutants by SPR was conducted using a Biacore T200 biosensor at 25° C. in either HBS-EP (10 mM HEPES pH 7.4, 150 mM NaCl, 3 mM EDTA, and 0.005% (v/v) surfactant P20) or MES-EP (20 mM MES pH 6.5, 150 mM NaCl, 3 mM EDTA, and 0.005% (v/v) surfactant P20) at a flow-rate of 40 μL min⁻¹. […] For the analysis of the Fc-domain 11^AB5 interaction, approximately 50 RU of a biotinylated IGF2:biotinylated ubiquitin mixture (1:8 proportion) was immobilized on the CM5-streptavidin chip. This interaction was also analysed by immobilizing the Fc-domain 11^AB5 and Fc-domain 11^AB5-RHH (or Fc-domain 11^I1572A as control) by Human Antibody Capture (monoclonal mouse anti-human IgG antibody immobilised on a CM5 chip by amine coupling, GE Healthcare) with and without human IgG1 Fc fragment (Bethyl Laboratories, UK) in the control flow cell. […] T200 BiaEvaluation software (GE Healthcare) was used to fit the resulting curves according to a 1:1 binding model. Steady state affinities were determined using the kinetic data, taking the response average at 5 seconds before injection end and for 5 seconds average.

Assay [2] deals with T1, human IGF2^1-67 (mature insulin-like …). The assay is described as follows: SPR kinetic, biotin-IGF2 on chip, pH 7.4.
Text: as §1, §2
On the technique in general: Surface plasmon resonance follows binding to a sensor surface in real time, without labels.

T1 sequence (P01344 25-91): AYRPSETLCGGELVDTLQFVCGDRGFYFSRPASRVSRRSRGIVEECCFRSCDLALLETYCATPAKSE

B1: domain 11^AB5 G1603A (receptor)
chain: MKSNEHDDCQVTNPSTGHLFDLSSLSGRAGFTAAYAKGWGVYMSICGENENCPPGVGACFGQTRISVGKANKRLRYVDQVLQLVYKDGSPCPSKSALSYKSVISFVCRPEAGPTNRPMLISLDKQTCTLFFSWHTPLACEQATECSV
notes: See m5
In the case of B1, in assay [1], the Kd (usually the equilibrium constant for the complex coming apart) is 12.1 nM. Besides, in assay [2], the Kd came to 8.69 nM; the koff (commonly the rate constant with which the complex falls apart) turned out to be 0.0183 s⁻¹; the kon (in general, the rate constant with which the complex forms) amounted to 2.14e+06 M⁻¹ s⁻¹.

B2: domain 11^AB5 K1601A (receptor)
chain: MKSNEHDDCQVTNPSTGHLFDLSSLSGRAGFTAAYAKGWGVYMSICGENENCPPGVGACFGQTRISVGKANKRLRYVDQVLQLVYKDGSPCPSASGLSYKSVISFVCRPEAGPTNRPMLISLDKQTCTLFFSWHTPLACEQATECSV
notes: See m5
The molecule B2 yielded a Kd in assay [1] of 8.51 nM. For the same molecule, in assay [2], the Kd was 6.8 nM, the koff amounted to 0.022 s⁻¹ and the kon was found to be 3.26e+06 M⁻¹ s⁻¹.

B3: domain 11^AB5 K1631A (receptor)
chain: MKSNEHDDCQVTNPSTGHLFDLSSLSGRAGFTAAYAKGWGVYMSICGENENCPPGVGACFGQTRISVGKANKRLRYVDQVLQLVYKDGSPCPSKSGLSYKSVISFVCRPEAGPTNRPMLISLDAQTCTLFFSWHTPLACEQATECSV
notes: See m5; HI loop mutant
On to B3, for which the Kd in assay [1] and in assay [2] was > 200 nM throughout.

B4: domain 11^AB5 L1604A (receptor)
chain: MKSNEHDDCQVTNPSTGHLFDLSSLSGRAGFTAAYAKGWGVYMSICGENENCPPGVGACFGQTRISVGKANKRLRYVDQVLQLVYKDGSPCPSKSGASYKSVISFVCRPEAGPTNRPMLISLDKQTCTLFFSWHTPLACEQATECSV
notes: See m5
In turn, B4 came in with a dissociation constant Kd in assay [1] of 60 nM. Besides, in assay [2], the Kd turned out to be 48.3 nM, the off-rate constant (koff) was found to be 0.0397 s⁻¹ and the kon stood at 790000 M⁻¹ s⁻¹.

B5: domain 11^AB5 K1631E (receptor)
chain: MKSNEHDDCQVTNPSTGHLFDLSSLSGRAGFTAAYAKGWGVYMSICGENENCPPGVGACFGQTRISVGKANKRLRYVDQVLQLVYKDGSPCPSKSGLSYKSVISFVCRPEAGPTNRPMLISLDEQTCTLFFSWHTPLACEQATECSV
notes: See m5; HI loop mutant
As to B5, the Kd in assay [1] was > 100 nM. Further, in assay [2], the Kd was > 100 nM and the koff is > 0.1 s⁻¹.

B6: domain 11^AB5 K1631W (receptor)
chain: MKSNEHDDCQVTNPSTGHLFDLSSLSGRAGFTAAYAKGWGVYMSICGENENCPPGVGACFGQTRISVGKANKRLRYVDQVLQLVYKDGSPCPSKSGLSYKSVISFVCRPEAGPTNRPMLISLDWQTCTLFFSWHTPLACEQATECSV
notes: See m5; HI loop mutant
B6 yielded a Kd in assay [1] of 12.2 nM. In assay [2], this molecule showed a Kd of 2.94 nM, a koff of 0.0034 s⁻¹ and a kon of 1.18e+06 M⁻¹ s⁻¹.

B7: domain 11^AB5 P1599A (receptor)
chain: MKSNEHDDCQVTNPSTGHLFDLSSLSGRAGFTAAYAKGWGVYMSICGENENCPPGVGACFGQTRISVGKANKRLRYVDQVLQLVYKDGSPCASKSGLSYKSVISFVCRPEAGPTNRPMLISLDKQTCTLFFSWHTPLACEQATECSV
notes: See m5; the asterisk is not explained
Take B7: the Kd in assay [1] and in assay [2] was > 70 nM in each case. Moreover, the koff in assay [2] was > 0.1 s⁻¹.

B8: domain 11^AB5 K1631R (receptor)
chain: MKSNEHDDCQVTNPSTGHLFDLSSLSGRAGFTAAYAKGWGVYMSICGENENCPPGVGACFGQTRISVGKANKRLRYVDQVLQLVYKDGSPCPSKSGLSYKSVISFVCRPEAGPTNRPMLISLDRQTCTLFFSWHTPLACEQATECSV
notes: See m5; HI loop mutant
Regarding B8, in assay [1], the affinity, expressed as Kd, was 13.5 nM. Also, in assay [2], the Kd was determined as 12.3 nM, the koff was found to be 0.0867 s⁻¹ and the kon came out at 7.18e+06 M⁻¹ s⁻¹.

B9: domain 11^AB5 P1599G (receptor)
chain: MKSNEHDDCQVTNPSTGHLFDLSSLSGRAGFTAAYAKGWGVYMSICGENENCPPGVGACFGQTRISVGKANKRLRYVDQVLQLVYKDGSPCGSKSGLSYKSVISFVCRPEAGPTNRPMLISLDKQTCTLFFSWHTPLACEQATECSV
notes: as for B7
For B9, the Kd in assay [1] and in assay [2] was > 200 nM in each case. Besides, the koff in assay [2] is > 0.2 s⁻¹.

These data come from patent US20180237497A1 (CANCER RESEARCH TECHNOLOGY, published 2018).
